The values that follow come from patent US9193790B2, “Use of antagonists of the interaction between HIV GP120 and A4B7 integrin” (priority 2006, dated 2015).

Entries after “also recorded” stand apart in the source; their conditions may differ. Ends that are not written are not given here.

Assay [1] has as its target T1, α4β7 integrin on CD8+ T-cells (Homo sapiens, UniProt P13612+P26010).
T1 construct: Purified CD4+ T cells and NK cells were obtained by negative selection using magnetic beads; On NKs β7 integrin pairs with α4 integrin (CD49d); endogenous in cells; host or cells: freshly isolated NK cells; OKT3/IL2/retinoic acid-cultured PBMCs (CD8-depleted, i.e. CD4+ T cells) and CD8+ T cells from healthy donors
T1 sequence (P13612 34-1032): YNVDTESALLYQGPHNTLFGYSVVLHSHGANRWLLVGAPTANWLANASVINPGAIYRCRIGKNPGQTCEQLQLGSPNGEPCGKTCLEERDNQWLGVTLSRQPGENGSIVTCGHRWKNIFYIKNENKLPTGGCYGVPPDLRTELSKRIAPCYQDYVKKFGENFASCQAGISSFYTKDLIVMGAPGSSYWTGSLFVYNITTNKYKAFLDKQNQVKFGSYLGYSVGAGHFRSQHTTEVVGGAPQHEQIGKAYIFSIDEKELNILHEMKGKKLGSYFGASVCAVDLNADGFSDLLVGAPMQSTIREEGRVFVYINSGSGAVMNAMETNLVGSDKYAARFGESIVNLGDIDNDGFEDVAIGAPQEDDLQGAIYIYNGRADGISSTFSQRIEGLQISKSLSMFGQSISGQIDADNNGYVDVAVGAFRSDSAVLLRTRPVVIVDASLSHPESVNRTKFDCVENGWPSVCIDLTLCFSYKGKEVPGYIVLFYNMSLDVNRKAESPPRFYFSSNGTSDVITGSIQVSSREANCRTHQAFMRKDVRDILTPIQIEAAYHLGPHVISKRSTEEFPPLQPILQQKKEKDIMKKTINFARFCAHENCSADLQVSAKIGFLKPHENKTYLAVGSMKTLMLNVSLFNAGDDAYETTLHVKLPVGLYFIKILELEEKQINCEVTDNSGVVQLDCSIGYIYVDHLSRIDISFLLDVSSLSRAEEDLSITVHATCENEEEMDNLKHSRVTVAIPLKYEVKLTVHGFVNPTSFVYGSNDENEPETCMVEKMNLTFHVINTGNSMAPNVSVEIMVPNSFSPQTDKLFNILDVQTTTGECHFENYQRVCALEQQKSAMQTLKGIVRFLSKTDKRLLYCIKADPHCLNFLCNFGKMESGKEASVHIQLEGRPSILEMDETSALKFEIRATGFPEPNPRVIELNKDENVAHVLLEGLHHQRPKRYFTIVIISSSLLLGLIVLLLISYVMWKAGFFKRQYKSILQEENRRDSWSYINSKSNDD
T1 sequence (P26010 20-798): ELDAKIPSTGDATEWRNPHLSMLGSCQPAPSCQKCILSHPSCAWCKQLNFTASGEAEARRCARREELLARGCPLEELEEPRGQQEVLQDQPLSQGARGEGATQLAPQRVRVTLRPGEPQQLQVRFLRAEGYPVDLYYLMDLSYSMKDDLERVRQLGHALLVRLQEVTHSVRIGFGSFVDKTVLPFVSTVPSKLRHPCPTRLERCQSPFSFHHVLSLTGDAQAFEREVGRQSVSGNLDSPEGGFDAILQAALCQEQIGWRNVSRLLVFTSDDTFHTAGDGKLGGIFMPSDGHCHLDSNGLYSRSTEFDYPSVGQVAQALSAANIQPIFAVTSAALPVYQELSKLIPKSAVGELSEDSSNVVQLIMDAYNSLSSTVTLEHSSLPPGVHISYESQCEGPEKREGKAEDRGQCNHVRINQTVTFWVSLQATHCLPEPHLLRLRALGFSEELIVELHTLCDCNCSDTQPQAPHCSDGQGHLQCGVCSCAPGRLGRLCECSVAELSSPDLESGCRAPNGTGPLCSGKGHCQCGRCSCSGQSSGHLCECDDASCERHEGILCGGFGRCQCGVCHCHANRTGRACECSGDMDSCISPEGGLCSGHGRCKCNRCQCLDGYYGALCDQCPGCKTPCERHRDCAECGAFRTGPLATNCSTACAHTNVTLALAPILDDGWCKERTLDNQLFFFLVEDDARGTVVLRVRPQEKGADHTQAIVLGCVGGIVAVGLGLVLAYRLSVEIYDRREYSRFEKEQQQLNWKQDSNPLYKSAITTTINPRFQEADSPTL
The experiment in a line: Flow cytometry: gp120 binding to RA-cultured CD8+ T-cells. The conditions noted are these: peptide at 0.19 μM-12.5 μM (FIG. 8a). On the procedure: Cells and Reagents. Freshly isolated PBMCs were obtained from healthy donors and separated by Ficoll-Hypaque. Purified CD4+ T cells and NK cells were obtained by negative selection using magnetic beads (StemCell Technologies, Vancouver, BC). Cultured PBMCs were activated with OKT3, IL2 (201 U/ml) and retinoic acid (RA, 10 nM) unless otherwise specified. RA was obtained from Sigma Chemical (St. Louis, Mo.). Recombinant Ig-fusion proteins (MadCAM, VCAM-1, E-cadherin) were purchased from R&D Systems (Minneapolis, Minn.). Integrin antibodies were obtained from Serotech Laboratories Ltd. (Raleigh, N.C.) and Chemicon (Temecula, Calif.), while FITC, PE, APC surface marker antibodies were acquired from Beckton Dickinson (San Diego, Calif.). Cyclic peptides CWLDVC (SEQ ID NO:1) and the scrambled control peptide CDLWC (SEQ ID NO:31) were obtained from NeoMPS (San Diego, Calif.). Recombinant gp120s were produced and purified as described in supplemental methods, using hollow-fiber bioreactors (Fibercell Systems, Frederick, Md.). Integrin cDNA expression vectors were acquired from ORIGENE™ (ORIGENE is a trademark of OriGene Technologies, Inc., Rockville, Md.). […]
Recombinant gp120 protein labeling. […] Biotin incorporation was determined by reacting gp120s with 4′-hydroxyazobenzene-2-carboxylic acid-avidin conjugates (HABA) per the manufacturer's instructions (Pierce Chemical, Rockford, Ill.). […]
A general note: Flow cytometry measures light scatter and fluorescence of single cells or particles in a stream.

The target of a further assay is T2, α4β7 integrin (Homo sapiens, UniProt P13612+P26010).
T2 sequence (P13612 34-1032): T1 sequence (P13612 34-1032)
T2 sequence (P26010 20-798): T1 sequence (P26010 20-798)
The conditions noted are these: fibronectin, VCAM, MadCAM (Vanderslice et al. 1997); cited from earlier work.

For “CWLDVC (also: cyclic, kind of ring not given here)”, the “inhibition of gp120-binding to RA cultured CD8+ T-cells by cyclic peptide” value in assay [1] is given as “inhibited by CWLDVC in a dose dependent manner”. In the assay with α4β7 integrin, the “inhibition of binding of natural ligands to α4 / α4β7 integrin” value was “inhibit α4 integrin subunit binding to fibronectin, VCAM and MadCAM; also recorded: inhibit binding of all three natural ligands”.
